Reference: patent US20220098307A1 (WUHAN YZY BIOPHARMA, published 2022)
Like-named read-outs stand apart in the source and are kept apart here.

Legend:
Monkey CD3 [1] = target: T1, Monkey CD3 (monkey); assay: flow cytometry, monkey T cells
T1 construct: whole, on cells; also called CD3 of monkey CD3 positive T cells

Human CD3ε = target: T2, Human CD3ε (human, UniProt P07766 23-126); assay: flow cytometry, human T cells
T2 construct: CD3 on T cells isolated from human whole blood
In short: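 For cell-surface binding, T cells served for the CD3 arm and antigen-positive tumor cells (e.g. MM.1S or RPMI 8226 for CD38) for the tumor arm.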

human CEA = target: T3, human CEA (human, UniProt P06731 35-685); assay: flow cytometry, human tumor cells (table of the CEA series)
T3 sequence: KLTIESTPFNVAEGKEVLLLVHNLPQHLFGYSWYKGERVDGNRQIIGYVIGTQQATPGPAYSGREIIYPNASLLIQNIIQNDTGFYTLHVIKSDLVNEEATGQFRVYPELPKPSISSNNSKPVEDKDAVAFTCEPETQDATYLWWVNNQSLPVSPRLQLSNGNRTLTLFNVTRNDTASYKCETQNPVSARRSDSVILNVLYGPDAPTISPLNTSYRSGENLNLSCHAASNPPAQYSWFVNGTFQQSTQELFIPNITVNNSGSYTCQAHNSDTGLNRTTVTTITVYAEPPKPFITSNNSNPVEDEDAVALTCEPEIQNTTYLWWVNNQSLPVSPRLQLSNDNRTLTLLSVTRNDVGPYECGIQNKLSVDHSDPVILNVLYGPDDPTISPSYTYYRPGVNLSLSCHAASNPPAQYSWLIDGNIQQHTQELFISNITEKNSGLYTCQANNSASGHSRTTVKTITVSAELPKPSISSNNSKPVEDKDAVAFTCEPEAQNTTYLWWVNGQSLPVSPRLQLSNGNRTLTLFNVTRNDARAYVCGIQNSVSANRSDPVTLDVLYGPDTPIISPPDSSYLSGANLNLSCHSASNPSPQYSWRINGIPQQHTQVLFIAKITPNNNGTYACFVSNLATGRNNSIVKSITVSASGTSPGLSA
Excerpt: (§1) 1) Cell preparation: T cells isolated from CD3-positive human whole blood were used for a CD3 end affinity detection of multifunctional antibody molecule; positive tumor cells of corresponding antigen were used for detecting affinity of tumor antigen; for example, CD38-positive MM. 1S cells (purchased from the Cell Resource Center of Shanghai Institutes for Biological Sciences, Chinese Academy of Sciences) or RPMI 8226 cells (purchased from the Cell Resource Center of Shanghai Institutes for Biological Sciences, Chinese Academy of Sciences) were used for CD38 antigen detection, and PD-L1 positive H358 cells (purchased from the Cell Resource Center of Shanghai Institutes for Biological Sciences, Chinese Academy of Sciences) were used for PD-L1 antigen detection, and so on. The cells were resuspended with 1% FBS-PBS, adjusted to a density of 4×10⁶/ml, and 50 μl of cells were taken from each well, and then plated at 2×10⁵ per well. Cell plating was operated on ice
(§2) 2) Addition of the antibody: according to the experimental design, the antibody was diluted gradually, and dilution of antibody was operated on ice. For example, the initial concentration of antibody for dilution was 3000 nM, and the antibody was diluted by 3 times with 11 concentration gradients. The diluted antibody was added to a cell well at 50 μl per well, mixed well, and shaked and incubated at 4° C. 1100 rpm/min for 2 h; after washing, the cells were resuspend in 1% FBS-PBS, and a diluted secondary antibody PE anti-human IgG FC (Biolegend, 409304) was added with a final concentration of 8 ug/ml and a volume of 50 μl/well. At the same time, a well only added with cells and secondary antibody was set as a control, the components were mixed well, and incubated under shaking at 1100 rpm/min at 4° C. for 1 h;
(§3) 5) Data analysis: the data was analyzed by a flow analysis software FlowJo 7.6 thereby obtaining an average fluorescence intensity of the specific antibody concentration, plotted by a Graphpad Prism 5 with the antibody concentration (nM) as an abscissa and the average fluorescence intensity as an ordinate; the EC50 value was calculated by the method of One site—Specific binding, and the EC50 value indicated the cell affinity of the antibody to the corresponding target antigen.

Monkey CD3 [2] = target: T1, Monkey CD3; assay: flow cytometry, monkey T cells; remark: listed apart in the source
Human CD38 = Human CD38 (human, UniProt P28907 43-300); assay: flow cytometry, MM.1S or RPMI 8226 cells
Excerpt: as §1, §2, §3

Binder | EC50 (Monkey CD3 [1]) [nM] | EC50 (Human CD3ε) [nM] | binding result (human CEA) | EC50 (Monkey CD3 [2]) [nM] | EC50 (Human CD38) [nM]
M3IC-FES (bispecific antibody, structure 3 isotype control; CH2 FES; copies: 1 + 1 + 1 + 2) fusion heavy: EVKLDETGGGLVQPGRPMKLSCVASGFTFSDYWMNWVRQSPEKGLEWVAQIRNKPYNYETYYSDSVKGRFTISRDDSKSSVYLQMNNLRVEDMGIYYCTGSYYGMDYWGQGTSVTVSSASTKGPSVFPLAPSSKSTSGGTAALGCLVKDYFPEPVTVSWNSGALTSGVHTFPAVLQSSGLYSLSSVVTVPSSSLGTQTYICNVNHKPSNTKVDKKVEPKSCGGGGSGGGGSQVQLVESGGGVVQPGRSLRLSCAASGFTFSTYAMNWVRQAPGKGLEWVARIRSKYNNYATYYADSVKDRFTISRDDSKNTLYLQMNSLRAEDTAVYYCARHGNFGNSYVSWFAYWGQGTLVTVSSASVAAPSVFIFPPSDEQLKSGTASVVCLLNNFYPREAKVQWKVDNALQSGNSQESVTEQDSKDSTYSLSSTLTLSKADYEKHKVYACEVTHQGLSSPVTKSFNRGECDKTHTCPPCPAPEFEGGPSVFLFPPKPKDTLMISRTPEVTCVVVDVSHEDPEVKFNWYVDGVEVHNAKTKPREEQYNSTYRVVSVLTVLHQDWLNGKEYKCKVSNKALPASIEKTISKAKGQPREPQVYTLPPCRDELTKNQVSLWCLVKGFYPSDIAVEWESNGQPENNYKTTPPVLDSDGSFFLYSKLTVDKSRWQQGNVFSCSVMHEALHNHYTQKSLSLSPGK cross light: QTVVTQEPSLTVSPGGTVTLTCRSSTGAVTTSNYANWVQQKPGQAPRGLIGGTNKRAPGVPARFSGSLLGGKAALTLSGVQPEDEAEYYCALWYSNLWVFGGGTKVEIKSSASTKGPSVFPLAPSSKSTSGGTAALGCLVKDYFPEPVTVSWNSGALTSGVHTFPAVLQSSGLYSLSSVVTVPSSSLGTQTYICNVNHKPSNTKVDKKVEPKSC heavy: EVKLDETGGGLVQPGRPMKLSCVASGFTFSDYWMNWVRQSPEKGLEWVAQIRNKPYNYETYYSDSVKGRFTISRDDSKSSVYLQMNNLRVEDMGIYYCTGSYYGMDYWGQGTSVTVSSASTKGPSVFPLAPSSKSTSGGTAALGCLVKDYFPEPVTVSWNSGALTSGVHTFPAVLQSSGLYSLSSVVTVPSSSLGTQTYICNVNHKPSNTKVDKKVEPKSCDKTHTCPPCPAPEFEGGPSVFLFPPKPKDTLMISRTPEVTCVVVDVSHEDPEVKFNWYVDGVEVHNAKTKPREEQYNSTYRVVSVLTVLHQDWLNGKEYKCKVSNKALPASIEKTISKAKGQPREPQVCTLPPSRDELTKNQVSLSCAVKGFYPSDIAVEWESNGQPENNYKTTPPVLDSDGSFFLVSKLTVDKSRWQQGNVFSCSVMHEALHNRFTQKSLSLSPGK light: DVVMTQTPLSLPVSLGDQASISCRSSQSLVHSNGNTYLRWYLQKPGQSPKVLIYKVSNRFSGVPDRFSGSGSGTDFTLKISRVEAEDLGVYFCSQSTHVPWTFGGGTKLEIKRTVAAPSVFIFPPSDEQLKSGTASVVCLLNNFYPREAKVQWKVDNALQSGNSQESVTEQDSKDSTYSLSSTLTLSKADYEKHKVYACEVTHQGLSSPVTKSFNRGEC | 671 | 662 | no binding | – | –
M3IC-NA (bispecific antibody, structure 3 isotype control; CH2 N297A; copies: 1 + 1 + 1 + 2) fusion heavy: EVKLDETGGGLVQPGRPMKLSCVASGFTFSDYWMNWVRQSPEKGLEWVAQIRNKPYNYETYYSDSVKGRFTISRDDSKSSVYLQMNNLRVEDMGIYYCTGSYYGMDYWGQGTSVTVSSASTKGPSVFPLAPSSKSTSGGTAALGCLVKDYFPEPVTVSWNSGALTSGVHTFPAVLQSSGLYSLSSVVTVPSSSLGTQTYICNVNHKPSNTKVDKKVEPKSCGGGGSGGGGSQVQLVESGGGVVQPGRSLRLSCAASGFTFSTYAMNWVRQAPGKGLEWVARIRSKYNNYATYYADSVKDRFTISRDDSKNTLYLQMNSLRAEDTAVYYCARHGNFGNSYVSWFAYWGQGTLVTVSSASVAAPSVFIFPPSDEQLKSGTASVVCLLNNFYPREAKVQWKVDNALQSGNSQESVTEQDSKDSTYSLSSTLTLSKADYEKHKVYACEVTHQGLSSPVTKSFNRGECDKTHTCPPCPAPELLGGPSVFLFPPKPKDTLMISRTPEVTCVVVDVSHEDPEVKFNWYVDGVEVHNAKTKPREEQYASTYRVVSVLTVLHQDWLNGKEYKCKVSNKALPAPIEKTISKAKGQPREPQVYTLPPCRDELTKNQVSLWCLVKGFYPSDIAVEWESNGQPENNYKTTPPVLDSDGSFFLYSKLTVDKSRWQQGNVFSCSVMHEALHNHYTQKSLSLSPGK cross light: QTVVTQEPSLTVSPGGTVTLTCRSSTGAVTTSNYANWVQQKPGQAPRGLIGGTNKRAPGVPARFSGSLLGGKAALTLSGVQPEDEAEYYCALWYSNLWVFGGGTKVEIKSSASTKGPSVFPLAPSSKSTSGGTAALGCLVKDYFPEPVTVSWNSGALTSGVHTFPAVLQSSGLYSLSSVVTVPSSSLGTQTYICNVNHKPSNTKVDKKVEPKSC heavy: EVKLDETGGGLVQPGRPMKLSCVASGFTFSDYWMNWVRQSPEKGLEWVAQIRNKPYNYETYYSDSVKGRFTISRDDSKSSVYLQMNNLRVEDMGIYYCTGSYYGMDYWGQGTSVTVSSASTKGPSVFPLAPSSKSTSGGTAALGCLVKDYFPEPVTVSWNSGALTSGVHTFPAVLQSSGLYSLSSVVTVPSSSLGTQTYICNVNHKPSNTKVDKKVEPKSCDKTHTCPPCPAPELLGGPSVFLFPPKPKDTLMISRTPEVTCVVVDVSHEDPEVKFNWYVDGVEVHNAKTKPREEQYASTYRVVSVLTVLHQDWLNGKEYKCKVSNKALPAPIEKTISKAKGQPREPQVCTLPPSRDELTKNQVSLSCAVKGFYPSDIAVEWESNGQPENNYKTTPPVLDSDGSFFLVSKLTVDKSRWQQGNVFSCSVMHEALHNRFTQKSLSLSPGK light: DVVMTQTPLSLPVSLGDQASISCRSSQSLVHSNGNTYLRWYLQKPGQSPKVLIYKVSNRFSGVPDRFSGSGSGTDFTLKISRVEAEDLGVYFCSQSTHVPWTFGGGTKLEIKRTVAAPSVFIFPPSDEQLKSGTASVVCLLNNFYPREAKVQWKVDNALQSGNSQESVTEQDSKDSTYSLSSTLTLSKADYEKHKVYACEVTHQGLSSPVTKSFNRGEC | 935 | 739 | no binding | – | –
CD38-M1-G2-2 (bispecific antibody, human IgG1, kappa, structure 1; CD38 (MOR) x CD3; CH2 G2CH2) QVQLVESGGGVVQPGRSLRLSCAASGFTFSTYAMNWVRQAPGKGLEWVARIRSKYNNYATYYADSVKDRFTISRDDSKNTLYLQMNSLRAEDTAVYYCARHGNFGNSYVSWFAYWGQGTLVTVSSGGGGSGGGGSGGGGSQTVVTQEPSLTVSPGGTVTLTCRSSTGAVTTSNYANWVQQKPGQAPRGLIGGTNKRAPGVPARFSGSLLGGKAALTLSGVQPEDEAEYYCALWYSNLWVFGGGTKVEIKGRGRGSDKTHTCPPCPAPPVAGPSVFLFPPKPKDTLMISRTPEVTCVVVDVSHEDPEVQFNWYVDGVEVHNAKTKPREEQFNSTFRVVSVLTVVHQDWLNGKEYKCKVSNKGLPAPIEKTISKTKGQPREPQVCTLPPSRDELTKNQVSLSCAVKGFYPSDIAVEWESNGQPENNYKTTPPVLDSDGSFFLVSKLTVDKSRWQQGNVFSCSVMHEALHNHYTQKSLSLSPGK heavy: not shown light: DIELTQPPSVSVAPGQTARISCSGDNLRHYYVYWYQQKPGQAPVLVIYGDSKRPSGIPERFSGSNSGNTATLTISGTQAEDEADYYCQTYTGGASLVFGGGTKLTVLGQRTVAAPSVFIFPPSDEQLKSGTASVVCLLNNFYPREAKVQWKVDNALQSGNSQESVTEQDSKDSTYSLSSTLTLSKADYEKHKVYACEVTHQGLSSPVTKSFNRGEC | – | 478 | – | 491 | 104
CD38-M1-FES-3 (bispecific antibody, structure 1; CD38 (MOR) x CD3 (I2C); CH2 FES; CL is Lc3) not shown heavy: not shown light: DIELTQPPSVSVAPGQTARISCSGDNLRHYYVYWYQQKPGQAPVLVIYGDSKRPSGIPERFSGSNSGNTATLTISGTQAEDEADYYCQTYTGGASLVFGGGTKLTVLGQGQPKAAPSVTLFPPSSEELQANKATLVCLISDFYPGAVTVAWKADSSPVKAGVETTTPSKQSNNKYAASSYLSLTPEQWKSHRSYSCQVTHEGSTVEKTVAPTECS | – | – | – | 34 | 11.1
